Data from patent US20250034212A1, “PEPTIDE” (PEPTIDREAM INC., priority 2021, published 2025).
Starred links: 1 amine or outer side, 2 acyl side, 3 side chain; linkers in the order of their positions; H or OH if unused. Positions of bridges follow the written chain, without caps; N, C: chain ends. Non-standard residues stand in square brackets, D forms with d. KCOpipzaa = N6-(4-(carboxymethyl)piperazine-1-carbonyl)-L-lysine, O=C(NCCCC[C@H](N[*:1])C(=O)[*:2])N1CCN(CC(=O)[*:3])CC1; 1Nal = N[C@@H](Cc1cccc2ccccc12)C(=O)O; Gly(NCH2CH2Ph) = O=C(O)CNCCc1ccccc1; 4Pal = N[C@@H](Cc1ccncc1)C(=O)O

How the values were obtained:
[1] = target: T1, recombinant human TGF-β2 (R&D systems) (human, UniProt P61812 303-414); experiment: SPR, TGF-β2 immobilised, single cycle kinetics; target TGF-β2, not TGF-β1
T1 construct: Bought protein
T1 sequence (looked up): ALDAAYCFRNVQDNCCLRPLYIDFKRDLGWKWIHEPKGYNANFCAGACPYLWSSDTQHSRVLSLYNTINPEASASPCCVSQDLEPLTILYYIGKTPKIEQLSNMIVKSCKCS

[2] = target: T2, recombinant human TGF-β1 (R&D systems) (human, UniProt P01137 279-390); experiment: cell-based or functional assay
T2 sequence (P01137 279-390 limits assumed): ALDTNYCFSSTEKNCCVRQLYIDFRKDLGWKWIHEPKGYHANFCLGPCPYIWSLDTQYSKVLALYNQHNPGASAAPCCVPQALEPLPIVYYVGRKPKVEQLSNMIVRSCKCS

[3] = target: T2, recombinant human TGF-β1 (R&D systems); experiment: cell-based or functional assay; remark: listed apart in the source
[4] = target: T1, recombinant human TGF-β2 (R&D systems); experiment: cell-based or functional assay
[5] = target: T2, recombinant human TGF-β1 (R&D systems); experiment: cell-based or functional assay; remark: listed apart in the source

B1: TGFb1_012 (peptide)
peptide: {CH2CO}-F[1Nal]VVNV[4Pal]DD[Gly(NCH2CH2Ph)]V[1Nal]YH[KCOpipzaa]CG-NH2
modifications: thioether N-16
SMILES: CC(C)[C@@H]1NC(=O)CN(CCc2ccccc2)C(=O)[C@H](CC(=O)O)NC(=O)[C@H](CC(=O)O)NC(=O)[C@H](Cc2ccncc2)NC(=O)[C@H](C(C)C)NC(=O)[C@H](CC(N)=O)NC(=O)[C@H](C(C)C)NC(=O)[C@H](C(C)C)NC(=O)[C@H](Cc2cccc3ccccc23)NC(=O)[C@H](Cc2ccccc2)NC(=O)CSC[C@@H](C(=O)NCC(N)=O)NC(=O)[C@H](CCCCNC(=O)N2CCN(CC(=O)O)CC2)NC(=O)[C@H](Cc2c[nH]cn2)NC(=O)[C@H](Cc2ccc(O)cc2)NC(=O)[C@H](Cc2cccc3ccccc23)NC1=O
notes: cyclic peptide; C-terminal G is a linker; also called TGF-β1_012
Kd [1]: 2 nM | SBE reporter % inhibition, peptide 0.075 nM [2]: 10.1% | SBE reporter % inhibition, peptide 0.75 nM [2]: 65.2% | SBE reporter % inhibition, peptide 7.5 nM [2]: 96% | SBE reporter % inhibition, peptide 75.0 nM [2]: 99.5% | SBE reporter % inhibition, peptide 0.062 nM [3]: 4.18% | SBE reporter % inhibition, peptide 0.185 nM [3]: 19.8% | SBE reporter % inhibition, peptide 0.56 nM [3]: 48.4% | SBE reporter % inhibition, peptide 1.7 nM [3]: 80.9% | SBE reporter % inhibition, peptide 5.0 nM [3]: 94.4% | SBE reporter % inhibition, peptide 15.0 nM [3]: 98.7% | IC50 (read off the curve) (SBE reporter assay in SBE reporter-HEK293 cells; TGF-β2 at 0.13 nM) [4]: ~6 nM | IC50 (read off the curve) (SBE reporter assay in SBE reporter-HEK293 cells; TGF-β1 at 0.13 nM) [5]: ~0.7 nM
